Reference: publication PMC7263513 (bioRxiv, 2020)

Target: SARS-CoV-2 receptor binding domain (RBD) (Severe acute respiratory syndrome …, UniProt P0DTC2)
Assay: cell-based or functional assay

Row | Binder | IC50 of neutralisation of SARS-CoV-2 pseudovirus (293T_(ACE2) cells)
1 | C119 (antibody, V domains shown) VH: QVQLVQSGAEVKKPGASVKVSCKASGYTFTSYYMHWVRQAPGQGLEWMGIINPSGGSTSYAQKLQGRVTMTRDTSTSTVYMELSSLRSEDTAVYYCARANHETTMDTYYYYYYMDVWGKGTTVTVSS VL: QSALTQPASVSGSPGQSITISCTGTSSDVGGYKYVSWYQRHPGKAPKLMIYDVSNRPSGVSNRFSGSKSGNTASLTISGLQAEDEADYYCSSYTSSSTSVVFGGGTQLTVL | 0.00912 µg/mL
2 | C118 (antibody, V domains shown) VH: QVQLVESGGGVVQPGRSLRLSCAASGFTFSNYAMHWVRQAPGKGLEWVAVISYDGSNKYYADSVKGRFTISRDNSKNTLYLQMNSLRAEDTAIYYCASGYTGYDYFVRGDYYGLDVWGQGTTVTVSS VL: QPVLTQSPSASASLGASVKLTCTLSSGHSSYAIAWHQQQPEKGPRYLMKLNTDGSHSKGDGIPDRFSGSSSGAERYLTISSLQSEDEADYYCQTWGTGILVFGGGTKLTVL | 0.104 µg/mL
3 | C115 (antibody, V domains shown) VH: QVQLVESGGGLIKPGRSLRLSCTASGFTFGDYAMTWFRQAPGKGLEWVGFIRSKAYGGTTGYAASVKYRFTISRDDSKSIAYLQMDSLKTEDTAVYYCTRWDGWSQHDYWGQGTLVTVSS VL: DIVMTQSPLSLSVTPGEPASISCRSSQSLLHSNGNNYFDWYLQKPGQSPQLLIYLGSNRASGVPDRFSGSGSGTDFTLKISRVEAEDVGVYYCMQVLQIPYTFGQGTKLEIK | 0.198 µg/mL
4 | C117 (antibody, V domains shown) VH: QVQLVESGGGVVQPGRSLRLSCAASGFTFSTYAMHWVRQAPGEGLEWVAVISYDGSNTYYADSVKGRFTISRDNSKNTLYLQMNSLRAEDTAVYYCARDPIWFGELLSPPFVHFDYWGQGTLVTVSS VL: QSVLTQPPSVSAAPGQKVTISCSGSSSNIGNNLVSWYQQLPGTAPKLLIYENNKRPSGIPDRFSGSKSGTSATLGITGLQTGDEADYYCGAWDSSLSAGGVYVFGTGTKVTVL | 0.348 µg/mL
5 | C116 (antibody, V domains shown) VH: QVQLVESGGGVVQPGRSLRLSCAASGFTYSTYAMHWVRQAPGKGLEWVAFISYDGSNKYYADSVKGRFTISRDNSKNTLYLQMNSLRAEDTAVYYCARDFYHNWFDPWGQGTLVTVSS VL: NFMLTQPHSVSESPGKTVTISCTGSSGSIASNYVQWYQQRPGSAPTTVIYEDNQRPSGVPDRFSGSIDRSSNSASLTISGLKTEDEADYYCQSYDSGNHWVVFGGGTRLTVL | > 1 µg/mL
6 | C121 (antibody, V domains shown) VH: not shown VL: QSALTQPASVSGSPGQSITISCTGTSSDVGSYNLVSWYQQHPGKAPKLMIYEGSKRPSGVSNRFSGSKSGNTASLTISGLQAEDEADYYCCSYAGSSTLVFGGGTKLTVL | 0.00673 µg/mL
7 | C114 (antibody, V domains shown) VH: QVQLVESGGGLIQPGGSLKLSCVVSGFTVSKNYISWVRQAPGKGLEWVSVIFAGGSTFYADSVKGRFAISRDNSNNTLFLQMNSLRVEDTAIYYCARGDGELFFDQWGQGTLVTVSS VL: QSVLTQPPSVSGAPGQRVTISCTGTSSNIGAGYDVHWYQQLPGRAPKVLISGNNIRPSEVPDRFSGSRSGTSASLAITSLQPEDEAQYYCQSYDSSLYAVFGGGTKLTVL | > 1 µg/mL
8 | C120 (antibody, V domains shown) VH: EVQLVESGGGLIQPGGSLRLSCAASGFTVSSNYMTWVRQAPGKGLEWVSLIYPGGSTYYADSVKGRFTISRDNSKNTLYLQMNSLRAEDTAVYYCAREGMGMAAAGTWGQGTLVTVSS VL: AIRMTQSPSSLSASVGDTVTITCQASQDISKYLNWYQQKPGKAPKLLIYDASNLETGVPSRFSGSGSGTDFTFTISSLQPEDIATYYCQQYDNLPQTFGGGTKVEIK | 0.0133 µg/mL
